The values that follow come from patent CN113214400A (FUKANG SHANGHAI HEALTH TECH CO LTD, dated 2021).

In test [1] the target is T1, 人PD-L1 (全长, 表达于CHO-K1细胞 WBP315.CHO-K1.hPro1.C11) (human, UniProt Q9NZQ7 19-290).
T1 construct: whole, on cells; also called human PD-L1; hPD-L1
Description: flow cytometry on CHO-K1 cells expressing human PD-L1.

For test [2], the target named is T2, 小鼠PD-L1 (全长, 表达于293F细胞 WBP315.293F.mPro1.C1) (mouse, UniProt Q9EP73 19-290).
T2 construct: whole, on cells; also called mouse PD-L1
T2 sequence (Q9EP73 19-290): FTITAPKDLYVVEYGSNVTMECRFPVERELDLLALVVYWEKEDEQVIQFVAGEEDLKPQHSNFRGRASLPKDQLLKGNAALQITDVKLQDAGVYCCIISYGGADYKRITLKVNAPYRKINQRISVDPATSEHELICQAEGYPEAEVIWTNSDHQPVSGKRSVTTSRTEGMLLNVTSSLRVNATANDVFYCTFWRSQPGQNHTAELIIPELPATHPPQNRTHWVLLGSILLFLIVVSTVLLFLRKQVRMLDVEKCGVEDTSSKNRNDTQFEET
Description: flow cytometry on 293F cells expressing mouse PD-L1. A general note: A flow cytometer gives signals particle by particle.

T1 sequence (Q9NZQ7 19-290): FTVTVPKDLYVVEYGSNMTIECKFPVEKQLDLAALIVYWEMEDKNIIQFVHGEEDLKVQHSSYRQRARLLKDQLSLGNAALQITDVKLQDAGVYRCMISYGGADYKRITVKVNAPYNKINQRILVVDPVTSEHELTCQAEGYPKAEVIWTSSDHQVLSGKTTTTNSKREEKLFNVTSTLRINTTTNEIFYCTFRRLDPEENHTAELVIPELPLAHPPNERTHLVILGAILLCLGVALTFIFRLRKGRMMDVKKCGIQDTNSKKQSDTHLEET

B1: W3156-AP3R2-1A3-z12-hIgG1 (Fc fusion)
chain: EVQLVESGGGLVQPGGSLRLSCAASGHFSNLAVNWFRQAPGKERELVAGILWSGGSTFYADSVKGRFTISRGNAENMLYLQMNSLRAEDTAVYYCNTGTNWGQGTLVTVSS
notes: tested as hIgG1 format; also called 抗PD-L1 VHH抗体; 亲本抗体 (PD-L1 arm); not shown: hIgG1 part (hinge/Fc) of the VHH-hIgG1 format
As for B1, the binding result in test [1] and in test [2] was “binds” throughout.
